Source: article doi:10.1101/2021.01.25.428038 (bioRxiv, 2021)

Molecular target: the molecule itself
Assay: bead aggregation assay

B1: hTMIGD1-Fc (extracellular domain of hTMIGD1, AA 1-222, fused to the Fc-part of human IgG) (Fc fusion)
chain: VLTVNGKTENYILDTTPGSQASLICAVQNHTREEELLWYREEGRVDLKSGNKINSSSVCVSSISENDNGISFTCRLGRDQSVSVSVVLNVTFPPLLSGNDFQTVEEGSNVKLVCNVKANPQAQMMWYKNSSLLDLEKSRHQIQQTSESFQLSITKVEKPDNGTYSCIAKSSLKTESLDFHLIVKDKTVGVPIE
- binding result: binds
